Assay results from paper PMC5038981 (DNA repair, 2015).

Target: T1, GST-tagged Rad27 (S. cerevisiae, UniProt P26793 1-382)
T1 sequence (looked up): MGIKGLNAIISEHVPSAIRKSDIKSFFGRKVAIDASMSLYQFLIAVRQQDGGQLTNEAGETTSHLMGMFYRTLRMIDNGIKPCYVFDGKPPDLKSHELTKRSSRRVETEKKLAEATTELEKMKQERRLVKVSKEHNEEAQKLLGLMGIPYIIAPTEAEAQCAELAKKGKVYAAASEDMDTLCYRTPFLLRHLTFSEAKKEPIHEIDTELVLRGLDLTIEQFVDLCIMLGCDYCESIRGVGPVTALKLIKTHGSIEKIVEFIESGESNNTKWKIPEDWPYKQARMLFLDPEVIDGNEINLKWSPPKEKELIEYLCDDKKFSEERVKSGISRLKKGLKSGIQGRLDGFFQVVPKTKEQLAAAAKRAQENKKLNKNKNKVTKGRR
Experiment: pull-down

- binding result: binds
B1: his-tagged Nej1 C-terminal fragment (residues 129-343) (domain or fragment, S. cerevisiae, UniProt Q06148 129-342, looked up)
chain: MFYMILQSLCMLLLKLVNLSTQYHYVQRDILNEKQKCLDFLLISLRDLDGGSKVISQWAPENSKNYESLQQCTDDDIIKKLLHKGKFQHQEFLADSLKTLLSLRNKFQDVSRFEESGELNKKERVRFPAVNHFYNDDFELQADPTNEARPNSRGKIKPKTDFKPKSRESSTSSQLRLENFSESEATPEKTKSSSSLVEEYPQKKRKFGKVRIKN
